1 substance from patent US20100216170A1 can be followed below.

Assay [1] deals with mutant membrane-bound TNFα on stably transfected CHO cells (B-220 cells) (UniProt P01375). In words: FACS, gate P4 (CHO cells with anti-CD19 beads), middle panel of FIG. 3.
Assay [2] shares this target. In words: FACS, beads with CHO-TNFα (B220), sample 2.
Assay [3] shares this target. The assay is described as follows: FACS, gate P4 (CHO cells with anti-CD19 beads), FIG. 4. On the technique in general: A flow cytometer gives signals particle by particle.

Sequence of UniProt P01375 (P01375 whole entry, change not shown): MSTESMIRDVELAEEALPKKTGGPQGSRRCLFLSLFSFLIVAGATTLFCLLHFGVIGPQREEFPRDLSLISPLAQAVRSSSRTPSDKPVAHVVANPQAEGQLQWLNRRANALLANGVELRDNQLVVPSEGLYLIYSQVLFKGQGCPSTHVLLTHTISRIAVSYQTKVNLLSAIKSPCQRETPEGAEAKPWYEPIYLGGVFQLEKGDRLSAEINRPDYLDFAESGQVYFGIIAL

“APC-labeled unrelated antibody (anti-CD19) coated on beads”: in assay [1], the #Events is 6 events, the % Parent came out at 0.1% and the % Total came out at 0.1%. This substance gave a % bound beads in assay [2] of 0.9%. For the same substance, in assay [3], the #Events amounted to 2 events, the % Parent worked out at 0% and the % Total amounted to 0%.
